Test results taken from paper PMC12744750 (Plant Communications, 2025).
Ends that are not written are not given here.

B1: ETR1 with a C-terminal HA tag (ETR1:HA), pro35S::ETR1:HA (receptor, Arabidopsis, UniProt P49333 1-738, looked up)
chain: MEVCNCIEPQWPADELLMKYQYISDFFIAIAYFSIPLELIYFVKKSAVFPYRWVLVQFGAFIVLCGATHLINLWTFTTHSRTVALVMTTAKVLTAVVSCATALMLVHIIPDLLSVKTRELFLKNKAAELDREMGLIRTQEETGRHVRMLTHEIRSTLDRHTILKTTLVELGRTLALEECALWMPTRTGLELQLSYTLRHQHPVEYTVPIQLPVINQVFGTSRAVKISPNSPVARLRPVSGKYMLGEVVAVRVPLLHLSNFQINDWPELSTKRYALMVLMLPSDSARQWHVHELELVEVVADQVAVALSHAAILEESMRARDLLMEQNVALDLARREAETAIRARNDFLAVMNHEMRTPMHAIIALSSLLQETELTPEQRLMVETILKSSNLLATLMNDVLDLSRLEDGSLQLELGTFNLHTLFREVLNLIKPIAVVKKLPITLNLAPDLPEFVVGDEKRLMQIILNIVGNAVKFSKQGSISVTALVTKSDTRAADFFVVPTGSHFYLRVKVKDSGAGINPQDIPKIFTKFAQTQSLATRSSGGSGLGLAISKRFVNLMEGNIWIESDGLGKGCTAIFDVKLGISERSNESKQSGIPKVPAIPRHSNFTGLKVLVMDENGVSRMVTKGLLVHLGCEVTTVSSNEECLRVVSHEHKVVFMDVCMPGVENYQIALRIHEKFTKQRHQRPLLVALSGNTDKSTKEKCMSFGLDGVLLKPVSLDNIRDVLSDLLEPRVLYEGM
notes: the ETR1 cDNA in pEarlyGate301; also called ETHYLENE RESPONSE 1; source: N. benthamiana leaves, transient expression by Agrobacterium infiltration, in protein extract; not shown: HA, C-terminal, kept
B2: PLS linked to a C-terminal GFP (PLS:GFP), pro35S::PLS:GFP (peptide, UniProt Q8LLV8 1-36, looked up)
chain: MKPRLCFNFRRRSISPCYISISYLLVAKLFKLFKIH-{GFP}
modifications: cysteine pairing not given here
notes: POLARIS (PLS) peptide of Arabidopsis thaliana, gene AT4G39403; the PLS gene without the stop codon (printed as 105 bp) in pEarlyGate103; source: N. benthamiana leaves, transient expression by Agrobacterium infiltration, in protein extract; not shown: GFP, C-terminal, kept

Key:
pPLS::GUS = pPLS::GUS expression in root tips after hormone treatment; assay type: in vivo, Arabidopsis; conditions: 10 µM ACC plus 10 μM 2,4-D
From the text: Figure S15. The link between auxi n and et hyl ene si gnal l i ng ef f ect s on PLS transcription, and downstream ef f ect s on et hyl ene responses.
(A) Ant agoni sm between auxi n and et hyl ene on PLS expressi on.
Auxin posit ively regulates PLS gene transcription, whi l e ACC (ethylene pr ecur sor ) […]
Lef t upper panel: pPLS::GUS […]
expr ession in the Arabidopsis root tip under standard gr owt h conditions. Lef t lower panel: pPLS::PLS:GFP expr ession in the Arabidopsis root tip under standard gr owt h conditions.
Ri ght panel: pPLS::GUS expr ession in root tips treated wi t h 10 μM 2,4-D, showing ect opic […]
10 μM 2,4-D plus 10 μm ACC, showing the ant agonism of the inductive eff ect of 2,4-D on PLS::GUS expr ession. Images ar e representative of 10 independently gr own roots. […]

pPLS::PLS:GFP = experiment: PLS:GFP fluorescence in root tip after ACC treatment; assay type: in vivo, Arabidopsis; conditions: 0, 1 or 10 μM ACC, 2 or 24 hours, n = 17
From the text: Figur e S15. The link between auxin and ethylene signalling effects on PLS transcription, and downstr eam effects on […]
in the root tip after ACC treatment. […]
Laser settings were mai nt ai ned at 21% 488 nm 20 mW, 970 V gain.
Images are representative of 10 independetly grown roots. Scale bars […]
Lower panel: Quanti fi cati on of PLS-GFP fluorescence after ACC treatment, detected in seedlings expressing the pPLS::PLS:GFP construct. Seedling root tips at seven d.a.g were imaged by CLSM after treatment with 0, 1 or 10 μM ACC for either 2 or 24 hours.
Fl uorescence intensity in each root was measured using ImageJ and the mean intensity for each treatment was calculated. Error bars show
± 1 standard error, n = 17.

ETR1 1-307 = target: T1, ETR1 1-307 (Arabidopsis thaliana); experiment: MST
T1 chain: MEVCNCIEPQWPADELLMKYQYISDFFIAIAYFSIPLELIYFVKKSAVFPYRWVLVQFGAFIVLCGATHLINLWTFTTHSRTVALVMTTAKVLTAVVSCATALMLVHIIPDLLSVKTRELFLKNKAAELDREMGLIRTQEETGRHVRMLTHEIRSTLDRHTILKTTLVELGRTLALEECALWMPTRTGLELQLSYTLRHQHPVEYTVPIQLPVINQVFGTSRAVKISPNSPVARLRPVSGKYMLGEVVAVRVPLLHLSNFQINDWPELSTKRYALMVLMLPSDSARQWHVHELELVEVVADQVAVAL

ETR1 1-157 = target: T2, ETR1 1-157 (Arabidopsis thaliana); experiment: MST
T2 chain: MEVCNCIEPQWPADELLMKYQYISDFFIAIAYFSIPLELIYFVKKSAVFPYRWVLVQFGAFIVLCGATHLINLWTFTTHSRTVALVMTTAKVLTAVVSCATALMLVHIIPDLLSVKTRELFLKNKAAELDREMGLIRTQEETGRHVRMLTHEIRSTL

ETR1 1-598 = target: T3, ETR1 1-598 (Arabidopsis thaliana); experiment: MST
T3 chain: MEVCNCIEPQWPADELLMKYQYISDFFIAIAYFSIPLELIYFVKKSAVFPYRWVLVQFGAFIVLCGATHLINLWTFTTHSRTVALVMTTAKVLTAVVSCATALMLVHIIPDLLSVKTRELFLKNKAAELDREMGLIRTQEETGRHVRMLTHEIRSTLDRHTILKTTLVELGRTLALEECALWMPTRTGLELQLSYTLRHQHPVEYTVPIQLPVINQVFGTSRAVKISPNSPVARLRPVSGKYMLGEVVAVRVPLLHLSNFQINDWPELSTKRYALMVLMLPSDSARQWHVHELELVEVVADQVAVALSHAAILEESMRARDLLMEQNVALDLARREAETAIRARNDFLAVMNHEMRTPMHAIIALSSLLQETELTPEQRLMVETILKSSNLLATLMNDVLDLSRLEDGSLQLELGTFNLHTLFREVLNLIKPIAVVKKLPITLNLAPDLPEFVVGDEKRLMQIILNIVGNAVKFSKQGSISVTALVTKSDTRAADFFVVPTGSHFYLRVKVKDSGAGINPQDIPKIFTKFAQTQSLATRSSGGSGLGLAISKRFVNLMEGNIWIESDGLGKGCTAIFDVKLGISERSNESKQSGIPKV

ETR1 1-407 = target: T4, ETR1 1-407 (Arabidopsis thaliana); experiment: MST
T4 chain: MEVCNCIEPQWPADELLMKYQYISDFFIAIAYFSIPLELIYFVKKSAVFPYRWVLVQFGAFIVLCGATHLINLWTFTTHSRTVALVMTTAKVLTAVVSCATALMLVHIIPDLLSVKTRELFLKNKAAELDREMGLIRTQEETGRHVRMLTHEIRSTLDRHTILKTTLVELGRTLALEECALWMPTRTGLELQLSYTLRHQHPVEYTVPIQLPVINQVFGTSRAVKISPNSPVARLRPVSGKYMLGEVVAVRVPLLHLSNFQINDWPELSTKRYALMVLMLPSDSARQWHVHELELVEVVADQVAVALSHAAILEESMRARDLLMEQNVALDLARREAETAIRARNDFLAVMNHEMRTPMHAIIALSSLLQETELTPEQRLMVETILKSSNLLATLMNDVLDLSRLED

[1] = target: B2; experiment: co-IP; anti-GFP beads on protein extract of N. benthamiana leaves co-expressing PLS:GFP and ETR1:HA; blot with anti-HA; with or without EDTA; conditions: partners not purified
[2] = target: B1; experiment: co-IP; anti-HA beads on protein extract of N. benthamiana leaves co-expressing ETR1:HA and PLS:GFP or GFP, 3 days after infiltration; blot with anti-GFP; with 0.5 μM CuSO4 or 2 mM EDTA added to the extract; conditions: partners not purified

Question: NC1(C(=O)O)CC1 [ACC, 1-aminocyclopropane-1-carboxylic acid] was tested. Which “effect on auxin-induced PLS expression” value (pPLS::GUS) did it give?
Answer: The value was “ant agonizes the inductive eff ect s of auxin”.

Question: And the “expression of PLS:GFP in root tip” value (pPLS::PLS:GFP)?
Answer: The value was “downr egulated”.

Question: Which Kd (ETR1 1-307) does the source give for MKPRLCFNFRRRSISPCYISISYLLVAKLFKLFKIH (cysteine pairing not given here; also: fluorescently labelled) [synthetic full-length POLARIS (PLS) peptide, PLS(FL)] here?
Answer: The Kd was 1780 nM.

Question: And the Kd (ETR1 1-157)?
Answer: Its Kd is 1520 nM.

Question: What about the Kd (ETR1 1-598) of the same molecule?
Answer: Its Kd is 2920 nM.

Question: And the Kd (ETR1 1-407)?
Answer: The Kd was 1650 nM.

Question: With B1 as the molecule, how does the “fold co-precipitated with 0.5 μM copper sulfate against 2 mM EDTA” value [1] read?
Answer: The value was roughly 3 fold.

Question: With B2 as the molecule, how does the “fold co-precipitated with 0.5 μM copper sulfate against 2 mM EDTA” value [2] read?
Answer: Its value is roughly 3 fold.
